± gives the standard deviation.
Experiment: protein stability index of a GFP-peptide fusion (GPS, HEK-293T) (PSI 1-6); higher = more stable
[1] = treatment: DMSO, c terminus: a fixed tail appended
[2] = treatment: MLN4924 1 uM, 8 h, c terminus: a fixed tail appended
[3] = treatment: DMSO, c terminus: native
[4] = treatment: MLN4924 1 uM, 8 h, c terminus: native
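Further: 24-mer peptide tiles fused after GFP, lentivirally expressed, FACS-sorted into six equal bins by GFP/DsRed ratio, decoded by Illumina sequencing, PSI is the read-weighted mean bin number.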

Sequence | protein stability index [1] | protein stability index [2] | protein stability index [3] | protein stability index [4]
VGVATARAPLHSVGYTALVGSDAE [SPSB4] | 4.35 ± 0.19 | 4.38 ± 0.3 |  | 
HPVPLSFEPVKSFFKGLVEAVEST [TRIM14] | 2.6 ± 0.41 | 2.26 ± 0.42 |  | 
IFEETLNILIYETPRGPDPALLEA [KCTD13] | 2.47 ± 0.51 | 2.63 ± 0.28 |  | 
AQAGGSKKAEQKKKEKIIEDKTFG [ZC3H15] | 5.12 ± 0.17 | 5.23 ± 0.16 |  | 
GSKQYSAAIAFTLALFSHLVNHVN [SMG5] | 3.39 ± 0.34 | 3.14 ± 0.43 |  | 
KPLFCGNSEADQLGKIFDLIGLPP [CDK4] | 2.62 ± 0.15 | 2.71 ± 0.28 |  | 
HIDPEIQDGSPTTSRRPSGTGTGP [PDLIM4] | 5.26 ± 0.26 | 5.42 ± 0.26 |  | 
TTNPHTSASHRPCVNGDVDKPSEP [SMG5] | 5.15 ± 0.23 | 5.12 ± 0.14 |  | 
FMRTSVKISYIGLMTQSSLETHHY [TMEM106C] | 3.07 ± 0.75 | 2.63 ± 0.38 |  | 
EDLEDLGAVAPPVSGDLTKEDIDL [NFE2L1] | 5.71 ± 0.4 | 5.3 ± 0.76 |  | 
SKLVPAIQNAHKNSTGSGRGKKLM [TPRG1] | 4.6 ± 0.24 | 4.58 ± 0.16 |  | 
QMPQGNPLLLSHTLQELLARDTVQ [SNX8] | 3.23 ± 0.086 | 3.15 ± 0.27 |  | 
FNLTPPICEQAEYHMFQREKVEVQ [KCNAB2] | 3.72 ± 0.24 | 3.88 ± 0.17 |  | 
ERSARYQYFVVDPMAEYNMPQYIL [PTPRD] | 2.01 ± 0.28 | 2.74 ± 0.99 |  | 
DAILYYYQSGGRIRRPVNVPIDIF [KCNA3] | 2.2 ± 0.61 | 2.58 ± 0.76 |  | 
LGKTNAKAVSEMRQKIWNNMPKDH [DYNC2LI1] | 3.38 ± 0.23 | 3.62 ± 0.37 |  | 
MDEEKLKQLNCVEISALNGNRINV [DLC1] | 3.6 ± 0.34 | 3.67 ± 0.3 |  | 
LAGTQLLYAFFTRTHGDMHSLVRS [TRIB3] | 3.13 ± 0.38 | 3.05 ± 0.35 |  | 
ISKSLELCNEISLSEIKDAPKVNA [DLC1] | 4.12 ± 0.39 | 4.21 ± 0.066 |  | 
WLAVDGLVSPSNNSKEDAFSGTDW [ATF4] | 3.76 ± 0.19 | 3.76 ± 0.27 |  | 
QLQKILSIPQSSLEPLKAIIQYRL [ACSBG2] | 2.78 ± 0.86 | 2.36 ± 0.25 |  | 
TTTVCLVAAALRYLQIFATRRSCI [FAM189A2] | 2.98 ± 0.42 | 2.89 ± 0.25 |  | 
MSREPTPPLPGDMSTGPIAESWCY [SPOPL] | 3.29 ± 0.32 | 3.37 ± 0.47 |  | 

Sequence | protein stability index [1] | protein stability index [2] | protein stability index [3] | protein stability index [4]
LLEQAGSLKGSLSVEEQLSLISGC [CRYL1] | 2.98 ± 0.32 | 3.2 ± 0.39 |  | 
ILQSPAFCEELESMIQEQFKKGKN [ADD1] | 3.53 ± 0.16 | 3.76 ± 0.17 |  | 
QMQEDNSSFSLLLDLLSELYQKQP [INTS3] | 2.38 ± 0.16 | 2.37 ± 0.31 |  | 
NFQQPGFTSGTGHFTAMVWKNTKK [GLIPR2] | 3.74 ± 0.32 | 3.95 ± 0.067 |  | 
VFDALESDHEMREEEKLKAEEIRI [KCNK9] | 5.27 ± 0.21 | 5.23 ± 0.17 |  | 
DCMLSEEGATLLLRGLCANTVLRF [LRRC45] | 2.44 ± 0.48 | 2.42 ± 0.4 |  | 
AGRPSLLRHDEVRTYFHEFGHVMH [NLN] | 2.48 ± 0.13 | 2.45 ± 0.47 |  | 
IFSGAASLGYGTNVAATGISQYED [APBB1IP] | 3.83 ± 0.24 | 3.67 ± 0.16 |  | 
LLGALVLLGLGVLLFSGGLSESET [PBXIP1] | 2.29 ± 0.77 | 2.47 ± 0.89 |  | 
DDPSLRKTHSSPALSQGHVTGSKT [PSD2] | 5.5 ± 0.32 | 5.5 ± 0.33 |  | 
TVPSAATSQPTPSQHSAHTSSQP [CCDC6] |  |  | 5.42 ± 0.23 | 5.33 ± 0.15
QEFSDVERAIETLIKNFHQYSVEG [S100A14] | 2.33 ± 0.33 | 2.59 ± 0.43 |  | 
QPWHAVMDIESLSVFTEPNRHFYR [FBXO33] | 2.26 ± 0.18 | 2.11 ± 0.13 |  | 
QVDGGANFSVDRWERKEGGGGISC [CPOX] | 4.4 ± 0.12 | 4.48 ± 0.21 |  | 
RSNADYQYQLLRCNVDLLKIIQLG [CNOT7] | 2.61 ± 0.46 | 2.51 ± 0.34 |  | 
NGIGAVLDFTHPKARDWFQGHLRR [MYORG] | 2.75 ± 0.34 | 2.64 ± 0.27 |  | 
DDFRSKYQTEQSLRLLVESDINSI [KRT34] | 3.77 ± 0.098 | 3.94 ± 0.27 |  | 
IATLRVALPSVMRFCCCVAVIYLG [MCOLN1] | 3.29 ± 0.55 | 3.15 ± 0.21 |  | 
TDGSVLAAGTHDGSVYFWATPRQV [WSB1] | 2.9 ± 0.18 | 2.89 ± 0.37 |  | 
QEQLLECNKLCGRGQSRQLSPET [SLC2A12] |  |  | 4.21 ± 0.43 | 4.61 ± 0.46
ASTPAQTAAGGQGGPGGPGSDKQQ [NR2F2] | 5.58 ± 0.26 | 5.59 ± 0.3 |  | 
KNVEENLYSSSLGGGVATSPMLIV [GLT8D2] | 2.26 ± 0.26 | 2.06 ± 0.22 |  | 
PVMDVWARKQDMNTKRAIHTLAVM [KLHL14] | 2.34 ± 0.1 | 2.33 ± 0.17 |  | 

Sequence | protein stability index [1] | protein stability index [2] | protein stability index [3] | protein stability index [4]
APAHVDEQVFLYENARSGAEAEPE [ZBED1] | 5.58 ± 0.21 | 5.51 ± 0.28 |  | 
NSKKEEPQELLQSQDFVGEKLGSG [ATE1] | 5.51 ± 0.11 | 5.42 ± 0.23 |  | 
RESWDSAKKLPPVQESQSERLQAA [ELOA2] | 5.12 ± 0.17 | 5.02 ± 0.086 |  | 
SPEKEEQYIAQFTSQFLSLQCLQA [PRAME] | 2.84 ± 0.41 | 2.44 ± 0.37 |  | 
LGLSKLARIVEIYSRRLQVQERLT [GCH1] | 2.71 ± 0.65 | 2.2 ± 0.41 |  | 
MGANTSRKPPVFDENEDVNFDHFE [STK32A] | 5.11 ± 0.26 | 5.134 ± 0.042 |  | 
RGRFGELLLLLPTLQSITWQMIEQ [HNF4A] | 2.94 ± 0.28 | 3.33 ± 0.3 |  | 
ELERFVNLHSLALDFCDFTAEMAR [FBXO33] | 2.23 ± 0.11 | 2.61 ± 0.29 |  | 
AEADEPTTHFQSIPDAFWWAVVTM [KCNA4] | 2.04 ± 0.76 | 2.11 ± 0.22 |  | 
GGTLFSLEEGSSFWNQGLTWKVLF [CLCN6] | 2.7 ± 0.46 | 2.6 ± 0.81 |  | 
DQPVMAVKTGEDGSNLDDAKGLAE [FANCE] | 5.44 ± 0.14 | 5.51 ± 0.26 |  | 
QGQYETIERLRSLSPKIMQEAFLV [TBC1D10A] | 2.32 ± 0.21 | 2.22 ± 0.27 |  | 
KATEPTETVQTWIELLTGETWNPF [GOLPH3L] | 2.36 ± 0.13 | 2.5 ± 0.34 |  | 
ETWNPFKLQYQLRNVRERIAKNLV [GOLPH3L] | 2.37 ± 0.34 | 2.37 ± 0.24 |  | 
LVEAVLSGEVLNGAAVVRPPGHHA [HDAC6] | 2.27 ± 0.2 | 2.27 ± 0.34 |  | 
IETLIRDMLLSGSSFNWPYMAIQ [NR2F2] |  |  | 3.02 ± 1.2 | 2.64 ± 0.41
PQGPPASPSCPEEALAATWEQPWA [PXN] | 4.15 ± 0.39 | 3.96 ± 0.27 |  | 
VWAHNLIAIARLRGSDLKVLEVTE [FBXO33] | 2.63 ± 0.85 | 2.95 ± 1.1 |  | 
SGEKPYKCSDCGKAFLTKTMLIVH [ZNF649] | 3.52 ± 0.24 | 3.68 ± 0.35 |  | 
NWLIKYDCPMDSSSSRDTDWVVVK [PI4K2A] | 2.83 ± 0.77 | 3.1 ± 0.17 |  | 
AIPIKSWFSDPSDTALLNLLPMLD [CTDNEP1] | 2.33 ± 0.16 | 2.47 ± 0.3 |  | 
STWLILHHKVYDLTKFLEEHPGGE [CYB5A] | 2.17 ± 0.29 | 2.21 ± 0.32 |  | 
LSDSGAFRRSLHDPDGLVATYISE [APMAP] | 4.12 ± 0.2 | 4.02 ± 0.23 |  | 

Sequence | protein stability index [1] | protein stability index [2] | protein stability index [3] | protein stability index [4]
ATLTQVSVEYGYRPGATAVPTPLT [FCHO1] | 2.39 ± 0.36 | 2.47 ± 0.26 |  | 
KHLTDTSHGVRNKCLQLLGNLGSL [INTS4] | 2.45 ± 0.4 | 2.46 ± 0.42 |  | 
LDWISYQVEKNKYDASAIDFSRCD [ELF3] | 2.93 ± 0.23 | 3.01 ± 0.1 |  | 
RDGGLCVNDLAVGLRRLGLHRTEG [SLC25A25] | 3.12 ± 0.16 | 2.99 ± 0.14 |  | 
NARLQAMWGQSLLPPVSTSFTTGG [TNXB] | 2.51 ± 0.29 | 2.89 ± 0.33 |  | 
QVLNAIEAYTEHRPEITSRAINLL [ZER1] | 2.56 ± 0.27 | 2.66 ± 0.32 |  | 
QLSSFGSVDWLSQSSCSGPTHTPR [VENTX] | 3.48 ± 0.3 | 3.69 ± 0.29 |  | 
DSLKFAVLMWLLTYVGALFNGLTL [RTN1] | 3.69 ± 1.4 | 3.378 ± 0.013 |  | 
SRAPCKVQGLEGIKMAMVACGDAF [NEK8] | 2.27 ± 0.38 | 2.25 ± 0.27 |  | 
VYPKEFHLNRGNHEDHMVNLRYGF [PPEF2] | 2.69 ± 0.29 | 2.71 ± 0.36 |  | 
NAREESLVEELSPASEKKPVPPSE [BCL2L13] | 5.33 ± 0.27 | 5.47 ± 0.14 |  | 
HGPDLYPKFKKWCDDYFFIAHRGE [CPOX] | 2 ± 0.15 | 2.1 ± 0.27 |  | 
RAGHHPNQYATCRLCGRQVSRGPG [ZBED2] | 2.35 ± 0.38 | 2.67 ± 0.59 |  | 
ETEKEEEEEDREEEDENGLPRRRG [NEUROD6] | 5.815 ± 0.053 | 5.62 ± 0.39 |  | 
LGAVAGLALGPILRLYKHNSQALL [MFSD9] | 2.59 ± 1.1 | 2.43 ± 0.15 |  | 
QYEEIALKSKAEAEALYQTKFQEL [KRT71] | 4.08 ± 0.35 | 4.18 ± 0.15 |  | 
DHLTTVLYLQLAICSSLQNLEKTI [C8orf76] | 3.21 ± 0.57 | 3.41 ± 0.35 |  | 
DSYTATGYGRAPGGLSLHDYKLLK [JUNB] | 3.36 ± 0.24 | 3.39 ± 0.21 |  | 
TPFLTNHGAHKAEKKLFECLTCGK [ZNF263] | 3.32 ± 0.34 | 3.53 ± 0.67 |  | 
MKQRDNCKIRIQRQLEIMGKEVSG [STX11] | 3.27 ± 0.18 | 3.39 ± 0.33 |  | 

From the supplement of paper PMC10567573
